Measured values from the supplement of paper PMC9732359.
± gives the uncertainty stated by the source.

Assay: protein stability index of a GFP-peptide fusion (yeast GPS) (PSI 1-4); higher = more stable; sorted into four equal gates, so the index is relative within each strain
How it was run: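 Sequencing reads from sorted gates were used to score each peptide. The library consisted of tiled 17-residue yeast protein peptides fused downstream of GFP on a Cherry-expressing plasmid, pooled and carried in yeast. Mid-log cultures in leucine-free medium were split into four equal gates by GFP/Cherry ratio, and each gate's plasmids were PCR-amplified and Illumina-sequenced. The protein stability index adds up, over all gates, the read frequency multiplied by the gate number.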

Sequence	protein stability index (doa10∆)	protein stability index (pdr5∆)	protein stability index (san1∆)	protein stability index (ubr1∆)
LKWIDTASKFGKGRFQT [RPL3]	3.34 ± 0.11	3.06 ± 0.094	3.11 ± 0.071	3.09 ± 0.065
SNDRVNPLIELTPIQKK [ITC1]	2.92 ± 0.2	1.99 ± 0.13	2.15 ± 0.27	2.65 ± 0.11
EGEKCHPQDFGNPGRIR [SEC65]	3.03 ± 0.076	2.76 ± 0.066	2.81 ± 0.057	3.08 ± 0.047
LYYRPHINKKSQLDLFL [GRR1]	1.78 ± 0.071	2.17 ± 0.12	1.28 ± 0.1	1.85 ± 0.093
RVWAEYATKRQEAIQQN [PRP8]	2.37 ± 0.15	2.56 ± 0.1	2.61 ± 0.1	2.2 ± 0.096
EEEDSILSLEQSSRVVS [YCS4]	3.11 ± 0.12	3.24 ± 0.08	3.19 ± 0.062	3.06 ± 0.086
YTREFVEAIRRSNQYQR [NUT2]	2.26 ± 0.07	2.18 ± 0.05	2.88 ± 0.12	2.21 ± 0.082
MLKQHLFKYQGHIGAYL [PUP1]	2.17 ± 0.064	2.34 ± 0.063	2.25 ± 0.092	2.25 ± 0.071
KRLLGTAFKSSPFGGSS [RPS23A]	2.22 ± 0.043	2.61 ± 0.045	2.33 ± 0.055	2.23 ± 0.034
SLTEKFSQTVADNNDLQ [ECM29]	2.48 ± 0.049	2.71 ± 0.056	2.64 ± 0.068	2.35 ± 0.048
EILVLYNVCDTSKSLVK [SIN4]	2.3 ± 0.05	2.88 ± 0.046	2.56 ± 0.058	2.97 ± 0.057
DKINQLSVVKYLLASLK [RPN9]	2.02 ± 0.16	2.15 ± 0.2	–	–
VFENYVKKTGENEISSL [CDC53]	3.14 ± 0.069	2.74 ± 0.072	2.9 ± 0.07	3.15 ± 0.042
TGKITKMFQDIRLSKIL [CDC53]	2.73 ± 0.07	3.03 ± 0.093	2.66 ± 0.071	2.86 ± 0.069
VRIDLGTIDKLQLELTI [RPO31]	1.99 ± 0.049	2.21 ± 0.052	2.5 ± 0.053	2.91 ± 0.042
PNADDIRDSIPQMDSFD [DIS3]	2.79 ± 0.078	2.86 ± 0.089	3.14 ± 0.09	3.06 ± 0.052
RIMSTRCMMAAQYFYSG [DIS3]	1.67 ± 0.06	1.95 ± 0.058	1.58 ± 0.079	1.77 ± 0.04
PLRLRLYDNFVSKFYDK [RPN9]	3.17 ± 0.068	3.18 ± 0.068	3.17 ± 0.064	2.96 ± 0.079
PINLQNGEEDEVALFSQ [YLR335W/NUP2]	3.11 ± 0.14	3.39 ± 0.17	3.22 ± 0.054	3.17 ± 0.18
PSENLLNIRIQTYGETT [RPC19]	1.85 ± 0.27	1.18 ± 0.13	–	1.33 ± 0.26
DKLTSIQDTLRTGSQSP [MED7]	2.7 ± 0.042	2.82 ± 0.045	2.69 ± 0.032	2.89 ± 0.033
FWSFLDSLIFKDSSLNY [YJL039C/NUP192]	3.22 ± 0.076	2.74 ± 0.078	2.11 ± 0.15	2.46 ± 0.079
NVASLVRVQFQFTGFLL [GRR1]	1.85 ± 0.072	1.73 ± 0.075	1.48 ± 0.1	1.55 ± 0.058
AASFKKLYKTPIPIPAF [PRE10]	2.54 ± 0.14	3.15 ± 0.12	2.75 ± 0.079	3 ± 0.12
QRIAKNDPEYMDTSDDA [DLS1]	3.01 ± 0.16	3.15 ± 0.12	2.82 ± 0.15	3.01 ± 0.079
RLELPVDFQNDLKDILE [BRR2]	2.83 ± 0.14	3.09 ± 0.084	2.78 ± 0.061	2.81 ± 0.052
HNAGPVAGAGAASGAAA [RPP1B]	3.11 ± 0.11	2.24 ± 0.05	2.22 ± 0.12	2.02 ± 0.059

Sequence	protein stability index (doa10∆)	protein stability index (pdr5∆)	protein stability index (san1∆)	protein stability index (ubr1∆)
LGNTVSTQPSFAWSKPS [YGR119C/NUP57]	2.62 ± 0.067	2.84 ± 0.056	2.85 ± 0.077	2.25 ± 0.035
GSEIAISSLGYRSHIFA [SWI3]	2.63 ± 0.057	2.27 ± 0.048	2.45 ± 0.051	2.34 ± 0.045
NSIDSTSRIELELKNIG [ECM29]	3.24 ± 0.087	3.15 ± 0.062	2.8 ± 0.05	2.72 ± 0.044
GTGNNNKLNFIVDDKQE [DIB1]	1.42 ± 0.073	1.36 ± 0.047	1.57 ± 0.17	1.61 ± 0.058
DNIDEKVVKAIRIYFTE [NUT1]	3.12 ± 0.092	3 ± 0.061	3.04 ± 0.048	2.39 ± 0.036
KVGIWPYFDYIFNDILA [YJL039C/NUP192]	1.67 ± 0.11	1.96 ± 0.071	1.75 ± 0.17	1.43 ± 0.061
EKLTLVTLSEIYNELSY [CSN9]	1.48 ± 0.047	1.66 ± 0.036	1.57 ± 0.073	1.49 ± 0.046
SKLKEEEAALLIKERQE [ESC2]	2.85 ± 0.074	2.88 ± 0.065	2.83 ± 0.043	2.9 ± 0.054
LPKVRYNVEKVKRLMDF [NSL1]	1.8 ± 0.07	2.38 ± 0.065	1.96 ± 0.13	2.15 ± 0.081
FEEDEKNSDVWFLDHNY [RPN8]	2.7 ± 0.077	1.73 ± 0.073	1.5 ± 0.14	1.48 ± 0.084
EQKKTATEVTPQEPKHI [RPC19]	2.45 ± 0.054	3.02 ± 0.054	2.6 ± 0.072	2.54 ± 0.04
HDYWNKIMQSISNKDVI [SRB4]	1.85 ± 0.27	1.62 ± 0.23	1.33 ± 0.19	–
EVAQLGSLACDTADEAK [RPB4]	3.49 ± 0.15	3.28 ± 0.13	3.28 ± 0.17	2.73 ± 0.11
IMNVLSEGFEPTFSTHA [PRP8]	2.86 ± 0.096	2.94 ± 0.075	2.57 ± 0.07	2.67 ± 0.069
AQNVPMNIIQQQQQQNT [GAL11]	2.48 ± 0.043	2.6 ± 0.042	2.45 ± 0.069	2.46 ± 0.029
QVLMDINTLNGGSSDTA [GAL11]	3.29 ± 0.074	3.22 ± 0.072	3.15 ± 0.061	3.1 ± 0.061
SFKGSPNERKAKQAKIR [SNF2]	3.36 ± 0.12	3.56 ± 0.12	3.39 ± 0.18	3.12 ± 0.15
ILSLATEGCIGLSQTEA [MCD1]	2.58 ± 0.056	2.49 ± 0.068	2.81 ± 0.09	2.4 ± 0.062
QRILEVLGTPDQKIWPY [SSN3]	2.2 ± 0.076	1.45 ± 0.057	1.76 ± 0.093	1.6 ± 0.068
ETKDIRKQIQLLKKIIF [SRB4]	2.34 ± 0.052	2.43 ± 0.044	2.42 ± 0.045	2.39 ± 0.039
AVDHRRQNRNQEIFDAN [RPL13A]	3.15 ± 0.075	3.21 ± 0.058	3.23 ± 0.044	3.34 ± 0.046
FLTVSKLWAEIIVKILY [GRR1]	1.55 ± 0.046	1.97 ± 0.058	1.53 ± 0.087	1.37 ± 0.048
KIVDKDGIRQVDDFQAQ [PRE1]	2.9 ± 0.14	2.9 ± 0.11	–	–
RRISSMPGGYFHSEISP [YAR002W/NUP60]	2.27 ± 0.14	1.89 ± 0.11	2.96 ± 0.094	3.17 ± 0.14
KFNNGVVIAADTRSTQG [PUP1]	1.6 ± 0.066	2.4 ± 0.13	2.2 ± 0.2	2.7 ± 0.095
RDHEKDTYRTLMEEIES [YIL149C/MLP2]	3.31 ± 0.044	3.38 ± 0.043	3.414 ± 0.031	3.26 ± 0.037
